Results reported in patent publication US20240287165A1 (GENERAL HOSPITAL, published 2024).
Substitutions are numbered along the chain they refer to. Like-named read-outs stand apart in the source and are kept apart here. Blank lines part the entries; values can stand above or below the molecule they belong to.

Legend:
[1] = molecular target: ApoEch peptide KLH-…-CONH2 (human); experiment: ELISA, negative control
[2] = molecular target: full-length wild type human ApoE3 recombinant protein (His-tagged) (human) (UniProt P02649); experiment: ELISA, negative control
[3] = molecular target: wild type ApoE peptide KLH-…-CONH2 (human); experiment: ELISA, negative control
[4] = molecular target: full-length ApoE3ch (ApoE3 Christchurch R136S) mutant recombinant protein (His-tagged) (human) (UniProt P02649); experiment: ELISA, negative control
[5] = molecular target: T1, full-length ApoE3ch (ApoE3 Christchurch R136S) mutant recombinant protein (His-tagged) (human, UniProt P02649 19-317); experiment: ELISA, His-tagged ApoE protein on Ni-NTA plate, antibody diluted 1:1000 to 1:32000, anti-mouse HRP, absorbance 450 nm; x axis (printed 'Antibody Concentation') counts the dilution factor
T1 construct: also called ApoE3ch full length protein; APOE3ch Mutant; not shown: histidine tag
Description: (§1) ELISA: Antibodies designed against the heparin-binding domain of ApoE were tested for their affinity to ApoE3 and ApoEch mutant recombinant proteins using ELISA. The Ni-NTA HisSorb Plates (Qiagen) were washed 3 times with wash buffer 1 (DY008). The ApoE recombinant proteins were suspended in buffer (DY008) to give a final concentration of 0.5 μg/ml. The plates were incubated with 200 μl of ApoE recombinant proteins for 2 hours, and washed 5 times with 1x wash buffer (DY008). The plates were then incubated with antibodies at a serial dilution of from 1:1,000 to 1:32,000 for overnight at 4° C. The plate was then washed 5 times in 1X wash buffer (DY008), and incubated with anti-mouse HRP (Abcam; ab97046, 1:10,000) for 45 minutes, followed by 5 washes in 1x wash buffer to ensure complete removal of unbound secondary antibody. The sulfuric acid from the ELISA reagent kit (DY008) was warmed to 37° C. 100 μl of tetramethylbenzidine (Millipore) was added to initiate the detection phase of the reaction. After a 5-min incubation, sulfuric acid was added to terminate the reaction. The plate was then read using Synery 2 microplate reader (BioTek Instrument. Inc) and the Gen5 version1.11 software).
(§2) To generate monoclonal antibodies against the heparin-binding domain of ApoE, mice were immunized using the wild type ApoE peptide: KLH-[…]-CONH₂ (SEQ ID NO:54), and the ApoEch peptide: KLH-[…]-CONH₂ (SEQ ID NO:55). A cysteine residue was added at the N-terminus to facilitate conjugation of the peptides. Cell fusions were obtained from positive clones and cell supernatants tested for activity against the wild type and mutant peptides and proteins. Seven antibodies generated were analyzed by ELISA as examples, as described in the materials and methods section.

[6] = molecular target: T2, C-terminal domain ApoE3ch mutant recombinant protein (amino acids 125 to 299) (human, UniProt P02649 143-317); experiment: as above
T2 construct: also called C-terminal ApoE3ch mutant protein; APOE3 mutant c terminal protein; not shown: histidine tag
T2 chain: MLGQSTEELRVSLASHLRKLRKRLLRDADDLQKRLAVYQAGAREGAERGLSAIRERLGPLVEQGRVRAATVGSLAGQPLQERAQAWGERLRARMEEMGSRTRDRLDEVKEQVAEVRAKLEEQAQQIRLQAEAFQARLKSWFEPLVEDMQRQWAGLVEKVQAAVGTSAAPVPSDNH
Description: as §1, §2

[7] = molecular target: T3, C-terminal wild type ApoE3 recombinant protein (human, UniProt P02649 143-317, limits assumed); experiment: ELISA, His-tagged ApoE protein on Ni-NTA plate, antibody diluted 1:1000 to 1:32000, absorbance 450 nm against dilution factor
T3 construct: also called C-terminal form of wild type ApoE3; c-terminus of the APOE3WT protein; not shown: histidine tag
Description: Antibodies designed against the heparin binding domain of APOE were tested for affinity to APOE3 and APOEch mutant recombinant protein using an ELISA. The Ni-NTA HisSorb Plates (Qiagen) plates were washed 3 times with wash buffer 1 (DY008), the APOE recombinant proteins were suspended in buffer (DY008) to give a final concentration of 0.5 μg/ml. The plates were incubated with 200 μl for 2 hours. The plate was then washed 5 times with 1x wash buffer (DY008), the plates were then incubated with antibodies in a serial dilution series from 1:1000 to 1:32000 and incubated overnight at 4° C. The plate is then washed 5 times in 1X wash buffer (DY008). The plates were then incubated with Anti-mouse HRP (Abcam; ab97046) (1:10000) for 45 minutes. The plate was then washed 5 times in 1x wash buffer to ensure complete removal of unbound secondary antibody. The Sulfuric acid from the ELISA reagent kit (DY008) was warmed to 37° C. prior to addition of 100 μl of tetramethylbenzidine (Millipore) initiating the detection phase of the reaction. […] The plate was then read using Synery 2 microplate reader (BioTek Instrument. Inc) and the Gen5 version1.11 software).
The 19G10-2 antibody was further evaluated using Heparin-Affinity chromatography, Western Blotting, Quantitative ELISA for chromatography fractions, and ELISA for binding analyses. […]

[8] = molecular target: T4, ApoEch peptide KLH-CTEELRVSLASHLRK-CONH2 (human, not fully specified; C-terminal amide (CONH2); printed with KLH on the added N-terminal cysteine); experiment: ELISA of the monoclonal antibody purified from cloned hybridoma, O.D. 450 nm against antibody concentration (ng/mL, log axis)
T4 construct: also called Mut peptide; mutant ApoE peptide
T4 peptide: CTEELRVSLASHLRK

[9] = molecular target: T5, bovine serum albumin (BSA) (bovine, UniProt P02769 25-607); experiment: ELISA, BSA as control coat, antibody diluted 1:1000 to 1:32000, absorbance 450 nm; x axis counts the dilution factor
T5 sequence (P02769 25-607 limits assumed): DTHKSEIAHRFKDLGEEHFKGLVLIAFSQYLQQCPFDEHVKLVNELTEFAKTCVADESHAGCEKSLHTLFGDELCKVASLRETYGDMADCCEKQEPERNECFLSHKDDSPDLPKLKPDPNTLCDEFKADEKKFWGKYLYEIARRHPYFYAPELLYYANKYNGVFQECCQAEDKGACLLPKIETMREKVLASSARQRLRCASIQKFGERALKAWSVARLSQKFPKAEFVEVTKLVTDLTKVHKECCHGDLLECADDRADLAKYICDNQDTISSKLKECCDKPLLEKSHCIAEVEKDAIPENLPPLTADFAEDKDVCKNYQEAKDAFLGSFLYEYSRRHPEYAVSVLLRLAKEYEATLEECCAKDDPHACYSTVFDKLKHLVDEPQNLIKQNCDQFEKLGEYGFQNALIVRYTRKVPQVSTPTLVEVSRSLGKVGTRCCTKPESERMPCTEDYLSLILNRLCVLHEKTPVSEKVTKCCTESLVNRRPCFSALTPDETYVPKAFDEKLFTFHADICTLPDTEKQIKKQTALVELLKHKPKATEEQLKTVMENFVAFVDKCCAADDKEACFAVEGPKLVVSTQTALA
Description: as §1, with “100 μl of tetramethylbenzidine (Millipore) was added to initiate the detection phase of the reaction. After a 5-min incubation, sulfuric acid was added to terminate the reaction.” left out
To generate monoclonal antibodies against the heparin-binding domain of ApoE, mice were immunized using the wild type ApoE peptide: KLH-[…]-CONH₂ (SEQ ID NO:54), and the ApoEch peptide: KLH-[…]-CONH₂ (SEQ ID NO:55). […] Seven antibodies generated were analyzed by ELISA as examples, as described in the materials and methods section.

[10] = molecular target: T4, ApoEch peptide KLH-CTEELRVSLASHLRK-CONH2; experiment: ELISA of the monoclonal antibody purified from cloned hybridoma, O.D. 450 nm against antibody concentration (ng/mL, log axis)
[11] = molecular target: T4, ApoEch peptide KLH-CTEELRVSLASHLRK-CONH2; experiment: ELISA, parental hybridoma clone
[12] = molecular target: T6, wild type ApoE peptide KLH-CTEELRVRLASHLRK-CONH2 (human, not fully specified; C-terminal amide (CONH2); printed with KLH on the added N-terminal cysteine); experiment: ELISA, parental hybridoma clone
T6 construct: also called WT peptide; ApoE3 WT peptide
T6 peptide: CTEELRVRLASHLRK

[13] = molecular target: T1, full-length ApoE3ch (ApoE3 Christchurch …); experiment: ELISA, parental hybridoma clone
[14] = molecular target: T7, full-length wild type human ApoE3 recombinant protein (His-tagged) (human, UniProt P02649 19-317); experiment: ELISA, parental hybridoma clone
T7 construct: Recombinant protein from Innovagen; also called ApoE3 WT full-length protein; APOE3 WT; not shown: histidine tag

[15] = molecular target: T1, full-length ApoE3ch (ApoE3 Christchurch …); experiment: ELISA subclones analysis, 7C11-1 serum on mutant protein, O.D. 450 nm against dilution factor
[16] = molecular target: T5, bovine serum albumin (BSA); experiment: ELISA, BSA as control coat, antibody diluted 1:1000 to 1:32000, absorbance 450 nm; x axis counts the dilution factor; remark: listed apart in the source

Molecule: Neg. ctrl (Table 6)
absorbance (ELISA) [1]: 0.056 absorbance
absorbance (ELISA) [2]: 0.051 absorbance
absorbance (ELISA) [3]: 0.068 absorbance
absorbance (ELISA) [4]: 0.048 absorbance

B1: antibody 19G10-2 (antibody, V domains shown)
VH: EVQLQQSGAELVRPGALVKLSCKASGFNIKDYHMHWVKERPEQGLEWIGWIDPENGNTMYDPKFQGKASITADTSSNTAYLQLSSLTSEDTAVYYCVRGTARASFDYWGQGTTLTVSS
VL: DIVLTQSPASLAVSLGQRATISCKASQSVDYDGDSYMNWYQQKSGQPPKLLIYAASNLESGIPARFSGSGSGTDFTLNIHPVEEEDAATYYCQQSNVDPWTFGGGTKLEIK
notes: Tested as serum, as hybridoma supernatant and as purified monoclonal; also called 19G10-2 antibody serum; monoclonal antibody hybridoma supernatant 19G10-2
binding result [5]: binds
binding result [6]: binds
binding result [7]: no binding (tested: 1:1000 dilution)
binding result [8]: binds
binding result [9]: no binding (tested: 1:1000 dilution)

B3: antibody 7C11-1 (antibody, V domains shown)
VH: EVKLVESGGGLVQPGGSLKLSCAASGFTFSRYTMSWVRQTPEKRLEWVAKIRNVGGITYYPDTVKGRFTISRDNAKNTLYLQMSSLKSEDTAMYYCARHYYGSEDYFDYWGQGTTLTVSS
VL: B1 VL with I2N, S44P, L50V, L51F, D74N, V97E
notes: The limits without signal peptide (20-139, 21-131) come from CLM-00005; also called 7C11-1 serum
absorbance (ELISA) [11]: 0.058 absorbance
absorbance (ELISA) [12]: 1.28 absorbance
absorbance (ELISA) [13]: 0.055 absorbance
absorbance (ELISA) [14]: 0.689 absorbance
binding result [15]: no binding (tested: 1:10 dilution)

Continued, values first:

binding result [10]: binds
binding result [5]: binds
binding result [6]: binds
binding result [9]: no binding (tested: 1:1000 dilution)
B2: antibody 25F1-2 (antibody, V domains shown)
VH: B1 VH with L20W, M34I, E39Q, E46D, N55I, G56D, N57K, M59L, S69R, V97A
VL: B1 VL with S35T, S44P, A54T, E85V, V97E
notes: also called 25F1-2 antibody serum; monoclonal antibody hybridoma supernatant 25F1-2

binding result [16]: no binding (tested: 1:1000 dilution)
B4: mouse antibody 1343ab (antibody, mouse IgG1, kappa, V domains shown)
VH: EVQLQQSGAELVRPGALVKLSCKASGFNIKDYHLHWVKQRPEQGLEWIGWIDPENGNVIYDPKFQGKATMTVVTSSNTAYLQLRSLTSEDTAVYFCTRGTARASFDYWGQGTSLTVSS
VL: DIVLTQSPASLAVSLGQRATISCKASQSVDYDGENYMNWYQQKPGQSPKLLIYVASNLESGIPARFSGSGSGTDFTLNIHPVEEEDAATYYCQQSNLDPWTFGGGTKLEIKR
modifications: N-linked glycosylation detected on heavy chain constant region N at 292; loss of C-terminal lysine observed
notes: also called 23B2
